B1: GST-tagged SRC-1 RID (Receptor Interaction Domain of hSRC-1, amino acids 614-764) (other, not shown: a dimerising Fc or GST)
chain: HNNDRLSDGDSKYSQTSHKLVQLLTTTAEQQLRHADIDTSCKDVLSCTGTSNSASANSSGGSCPSSHSSLTERHKILHRLLQEGSPSDITTLSVEPDKKDSASTSVSVTGQVQGNSSIKLELDASKKKESKDHQLLRYLLDKDEKDLRSTP
notes: also called GST-SRC-1 RID; RID of SRC-1

Legend:
ERRα = biological target: T1, ERRα (Homo sapiens, UniProt P11474); conditions: micromolar concentrations; Yang and Chen (1999); cited from earlier work
T1 sequence (P11474 1-423): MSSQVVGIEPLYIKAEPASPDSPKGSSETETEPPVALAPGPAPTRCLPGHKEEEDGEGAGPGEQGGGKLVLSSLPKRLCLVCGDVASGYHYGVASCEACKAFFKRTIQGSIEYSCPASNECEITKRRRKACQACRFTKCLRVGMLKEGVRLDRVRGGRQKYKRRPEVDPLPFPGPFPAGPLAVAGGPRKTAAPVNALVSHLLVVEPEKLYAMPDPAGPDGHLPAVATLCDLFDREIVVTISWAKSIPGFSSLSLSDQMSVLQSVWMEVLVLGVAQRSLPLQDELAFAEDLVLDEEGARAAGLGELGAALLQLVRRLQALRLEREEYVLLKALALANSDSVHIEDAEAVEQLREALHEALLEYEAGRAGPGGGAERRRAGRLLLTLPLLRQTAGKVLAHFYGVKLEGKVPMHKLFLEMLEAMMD

[1] = biological target: T2, His-tagged ERR3 LBD mutant A272L (human (human and murine receptor are …, UniProt P62508 229-458)); test: native polyacrylamide gradient gel, no ligand
T2 construct: also called ERR3(A272L); ALA272LEU; not shown: hexahistidine tag from vector pET-15b
T2 sequence: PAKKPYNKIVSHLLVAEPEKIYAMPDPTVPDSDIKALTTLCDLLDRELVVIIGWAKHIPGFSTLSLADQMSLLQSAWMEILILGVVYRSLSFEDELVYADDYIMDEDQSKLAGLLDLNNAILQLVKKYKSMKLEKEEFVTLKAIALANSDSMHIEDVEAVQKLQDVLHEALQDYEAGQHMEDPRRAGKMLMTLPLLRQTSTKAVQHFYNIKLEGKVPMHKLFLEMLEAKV
Experimental: (§1) After purification the proteins were dialyzed in assay buffer (20 mM Tris.HCl pH 8.0, 200 mM NaCl), and concentrated. […] Protein complexes were resolved on native polyacrylamide gradient gels (8%-25%) using the Phast System (Pharmacia).
(§2) In vitro interaction assays with the RID (amino acids 617-764) of the coactivator SRC-1 has first been performed. […] Complexes were separated on native polyacrylamide gradient gels.

[2] = biological target: T3, His-tagged ERR3 LBD mutant F435L (human (human and murine receptor are …, UniProt P62508 229-458)); test: native polyacrylamide gradient gel, no ligand
T3 construct: also called ERR3(F435L); PHE435LEU; not shown: hexahistidine tag from vector pET-15b
T3 sequence: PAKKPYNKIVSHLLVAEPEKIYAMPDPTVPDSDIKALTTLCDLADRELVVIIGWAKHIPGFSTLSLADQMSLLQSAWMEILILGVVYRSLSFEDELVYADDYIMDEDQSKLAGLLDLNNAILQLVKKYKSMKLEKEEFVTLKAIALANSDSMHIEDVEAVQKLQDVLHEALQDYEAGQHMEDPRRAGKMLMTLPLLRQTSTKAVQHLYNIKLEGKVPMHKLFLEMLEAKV
Experimental: as §1, §2

[3] = biological target: T4, His-tagged ERR3 LBD (wild type; residues 229 to 458 of the Estrogen-Related Receptor 3) (human (human and murine receptor are …, UniProt P62508 229-458); test: native polyacrylamide gradient gel, no ligand
T4 construct: Expressed in E. coli BL21(DE3); Forms a homodimer in the crystal, in gel filtration and in mass spectrometry; SwissProt O75454 is printed for hERR3; also called wt LBD; wt ERR3; not shown: hexahistidine tag from vector pET-15b
T4 sequence: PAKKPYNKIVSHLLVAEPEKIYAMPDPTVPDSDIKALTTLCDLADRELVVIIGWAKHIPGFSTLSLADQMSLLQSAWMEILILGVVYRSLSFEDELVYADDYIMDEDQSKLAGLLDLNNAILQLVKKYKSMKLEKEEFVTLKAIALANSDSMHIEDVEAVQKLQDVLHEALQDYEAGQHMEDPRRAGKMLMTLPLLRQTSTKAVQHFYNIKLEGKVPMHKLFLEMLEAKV
Experimental: as §1, §2

[4] = biological target: T5, His-tagged ERR3 LBD mutant A272F (human (human and murine receptor are …, UniProt P62508 229-458)); test: native polyacrylamide gradient gel, no ligand
T5 construct: also called ERR3(A272F); ALA272PHE; not shown: hexahistidine tag from vector pET-15b
T5 sequence: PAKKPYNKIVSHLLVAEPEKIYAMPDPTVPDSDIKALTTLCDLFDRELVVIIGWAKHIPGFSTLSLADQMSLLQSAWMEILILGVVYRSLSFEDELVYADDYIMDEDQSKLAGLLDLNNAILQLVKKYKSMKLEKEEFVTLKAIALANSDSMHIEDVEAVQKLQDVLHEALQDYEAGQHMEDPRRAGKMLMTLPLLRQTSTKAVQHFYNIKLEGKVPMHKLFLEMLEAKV
Experimental: as §1, §2

[5] = biological target: T6, His-tagged ERR3 LBD mutant L345I (human (human and murine receptor are …, UniProt P62508 229-458)); test: native polyacrylamide gradient gel, no ligand
T6 construct: not shown: hexahistidine tag from vector pET-15b
T6 sequence: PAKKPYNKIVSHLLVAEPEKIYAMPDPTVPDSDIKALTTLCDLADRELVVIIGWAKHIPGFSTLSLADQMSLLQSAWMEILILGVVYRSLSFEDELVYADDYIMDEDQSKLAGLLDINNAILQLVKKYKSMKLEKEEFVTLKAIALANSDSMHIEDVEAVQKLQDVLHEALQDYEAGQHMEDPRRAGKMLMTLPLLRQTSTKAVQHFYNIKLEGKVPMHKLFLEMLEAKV
Experimental: as §1, §2

[6] = biological target: B1; test: native polyacrylamide gradient gel, no ligand
Experimental: as §1, §2

[7] = biological target: T4, His-tagged ERR3 LBD (wild type; …); test: crystal structure
Description: A.2 Protein Purification, Crystallization, Data Collection and Processing.

**Q.** Which ERRα basal activity (ERRα) does the source give for `ClC1=C(Cl)C2(Cl)C3C(Cl)C(Cl)CC3C1(Cl)C2(Cl)Cl` (stereo not shown) [chlordane] here?
**A.** The ERRα basal activity was “decrease”.

**Q.** For `CC1(C)C(C(Cl)Cl)C2(Cl)C(Cl)C(Cl)C1(Cl)C2(Cl)Cl` (stereo not shown) [toxaphene], which ERRα basal activity (ERRα) is on record?
**A.** Its ERRα basal activity is “decrease”.

**Q.** Which results are given for B1?
**A.** binding result [1]: binds; binding result [2]: binds; binding result [3]: binds; binding result [4]: binds; binding result [5]: binds

B2: His-tagged ERR3 LBD mutant L345I-F435L-F450L (receptor)
chain: PAKKPYNKIVSHLLVAEPEKIYAMPDPTVPDSDIKALTTLCDLADRELVVIIGWAKHIPGFSTLSLADQMSLLQSAWMEILILGVVYRSLSFEDELVYADDYIMDEDQSKLAGLLDINNAILQLVKKYKSMKLEKEEFVTLKAIALANSDSMHIEDVEAVQKLQDVLHEALQDYEAGQHMEDPRRAGKMLMTLPLLRQTSTKAVQHLYNIKLEGKVPMHKLLLEMLEAKV
notes: also called triple point mutation; not shown: hexahistidine tag from vector pET-15b
**Q.** Does B2 bind [6]?
**A.** Result: binds

B3: His-tagged ERR3 LBD mutant L345I-F435L (receptor)
chain: PAKKPYNKIVSHLLVAEPEKIYAMPDPTVPDSDIKALTTLCDLADRELVVIIGWAKHIPGFSTLSLADQMSLLQSAWMEILILGVVYRSLSFEDELVYADDYIMDEDQSKLAGLLDINNAILQLVKKYKSMKLEKEEFVTLKAIALANSDSMHIEDVEAVQKLQDVLHEALQDYEAGQHMEDPRRAGKMLMTLPLLRQTSTKAVQHLYNIKLEGKVPMHKLFLEMLEAKV
notes: not shown: hexahistidine tag from vector pET-15b
**Q.** Does B3 bind [6]?
**A.** Result: binds

B4: hSRC-1 peptide (SRC-1 NR box 2, amino acids 686-700) (peptide)
peptide: RHKILHRLLQEGSPS
notes: Contains the second LXXLL motif of the RID of SRC-1; also called SRC-1 NR box 2 peptide
**Q.** Does B4 bind [7]?
**A.** Result: binds

Reference: patent publication US7279325B2, “Method for identifying antagonist compounds of the estrogen-related receptor 3 (ERR3) by using the x-ray structural coordinates of the ligand binding domain” (priority 2002, dated 2007)
